Data from US20050215478A1, “Amino acid sequences capable of facilitating penetration across a biological barrier” (priority 2002, published 2005).
Several values for one entry are separate records, joined by “and”; a condition that tells them apart may be missing. Equal values may be shown once.

Assay: Formulation development: recovery of ^125I-IBW-002 after intestine loop injection, urine included (Example 2)
Assay type: in vivo, mouse
Settings: intestinal loop; for recovered cpm/mouse: blood 60′, organs and urine; for blood 15′, total cpm in the blood / blood 30′, total cpm in the blood / blood 60′, total cpm in the blood / blood 5′, total cpm in the blood / blood 10′, total cpm in the blood / blood 20′, total cpm in the blood: calculated from 50 μl sample assuming 2 ml blood
Procedure: The mice were anesthetized by i.p. injection of 0.05 ml of a mixture of 0.15 ml xylazine+0.85 ml of ketamin. A 2 cm long incision was made along the center of the abdomen, through the skin and abdominal wall. An intestine loop was gently pulled out through the incision and placed on wet gauze beside the animal. The loop remained intact through the entire procedure and was kept wet during the whole time. The tested compound was injected into the loop, 0.2 ml/ mouse, containing around 200,000 cpm, using a 26G needle. […] The animals were subsequently sacrificed. The following organs were removed: epididymal fat, kidneys, liver, lungs and brain. Radioactivity in each organ and in blood samples was counted. A 5 μl sample of the injected solution was counted to determine the total injected cpm per mouse.
To reach an improved formulation, a number of compounds were tested in experiments similar to that described in Example 1, with the following change: urine was collected and the measured radioactivity was added to that of the recovered tissues. […]
The total radioactive labeling injected per mouse was 195,900 cpm. Total cpm in the blood was calculated based on the 50 μl blood sample drawn out at different time points post injection, in the assumption that total blood volume of each mouse is 2 ml.
The total radioactive labeling injected per mouse was 143,000 cpm. Total cpm in the blood was calculated based on the 50 μl blood sample drawn out at different time points post injection, in the assumption that total blood volume of each mouse is 2 ml.

[1] = Table 5 formulation (PE 6,200), 125,320 cpm injected per mouse, individual mice, listed as 125I-IBW-002
[2] = Table 5 formulation (PE 6,200), 125,320 cpm injected per mouse, mean of 2 mice
[3] = Table 8 formulation (PE 6,200 + Taurodeoxycholic acid), 195,900 cpm injected per mouse, individual mice, listed as 125I-IBW-002
[4] = Table 8 formulation (PE 6,200 + Taurodeoxycholic acid), 195,900 cpm injected per mouse, mean of 4 mice
[5] = Table 11 formulation (Pluronic F-68 + Taurodeoxycholic acid), 143,000 cpm injected per mouse, individual mice, listed as 125I-IBW-002
[6] = Table 11 formulation (Pluronic F-68 + Taurodeoxycholic acid), 143,000 cpm injected per mouse, mean of 4 mice

## Ac-NYYDITLALAGICQSARLVQQLAGGGKGGK-NH2 (Ac-NYYDITLALAGICQSARLVQQLAGGGKGGK-NH2; also: 125I label) [IBW-002, ^125I-labeled using the Bolton Hunter Reagent for in vivo tests]
[1]
  recovered cpm/mouse: 35,759 cpm and 40,067 cpm
  blood 15′, total cpm in the blood: 19,920 cpm and 19,560 cpm
  blood 30′, total cpm in the blood: 18,800 cpm and 15,880 cpm
  blood 60′, total cpm in the blood: 14,560 cpm and 10,960 cpm
  blood/injected cpm (%), 15′: 15.90% and 15.61%
  blood/injected cpm (%), 30′: 15.00% and 12.67%
  blood/injected cpm (%), 60′: 11.62% and 8.75%
  brain, cpm recovered: 95 cpm and 110 cpm
  epididimal fat, cpm recovered: 321 cpm and 288 cpm
  kidney, cpm recovered: 2,564 cpm and 3,799 cpm
  liver, cpm recovered: 2,994 cpm and 2,786 cpm
  lungs, cpm recovered: 476 cpm and 377 cpm
  recovered cpm/injected cpm (%): 28.53% and 31.97%
  urine, cpm recovered: 14,749 cpm and 21,747 cpm
[2]
  recovered cpm/mouse: 37,913 cpm
  blood 15′, total cpm in the blood: 19,740 cpm
  blood 30′, total cpm in the blood: 17,340 cpm
  blood 60′, total cpm in the blood: 12,760 cpm
  blood/injected cpm (%), 15′: 15.75%
  blood/injected cpm (%), 30′: 13.84%
  blood/injected cpm (%), 60′: 10.18%
  brain, cpm recovered: 103 cpm
  epididimal fat, cpm recovered: 305 cpm
  kidney, cpm recovered: 3,182 cpm
  liver, cpm recovered: 2,890 cpm
  lungs, cpm recovered: 427 cpm
  recovered cpm/injected cpm (%): 30.25%
  urine, cpm recovered: 18,248 cpm
[3]
  recovered cpm/mouse: 93,914 cpm and 68,380 cpm and 89,969 cpm and 90,520 cpm
  blood 15′, total cpm in the blood: 40,600 cpm and 39,440 cpm and 51,920 cpm and 36,200 cpm
  blood 30′, total cpm in the blood: 37,440 cpm and 31,720 cpm and 48,440 cpm and 34,720 cpm
  blood 60′, total cpm in the blood: 33,880 cpm and 23,080 cpm and 40,840 cpm and 30,200 cpm
  blood/injected cpm (%), 15′: 20.72% and 20.13% and 26.50% and 18.48%
  blood/injected cpm (%), 30′: 19.11% and 16.19% and 24.73% and 17.72%
  blood/injected cpm (%), 60′: 17.29% and 11.78% and 20.85% and 15.42%
  brain, cpm recovered: 206 cpm and 176 cpm and 284 cpm and 173 cpm
  epididimal fat, cpm recovered: 1,081 cpm and 805 cpm and 903 cpm and 846 cpm
  kidney, cpm recovered: 9,513 cpm and 7,878 cpm and 10,661 cpm and 8,929 cpm
  liver, cpm recovered: 8,194 cpm and 5,154 cpm and 9,615 cpm and 8,708 cpm
  lungs, cpm recovered: 1,048 cpm and 636 cpm and 1,221 cpm and 1,303 cpm
  recovered cpm/injected cpm (%): 47.94% and 34.91% and 45.42% and 46.21%
  urine, cpm recovered: 39,992 cpm and 30,651 cpm and 25,445 cpm and 40,361 cpm
[4]
  recovered cpm/mouse: 85,446 cpm
  blood 15′, total cpm in the blood: 42,040 cpm
  blood 30′, total cpm in the blood: 38,080 cpm
  blood 60′, total cpm in the blood: 32,000 cpm
  blood/injected cpm (%), 15′: 21.46%
  blood/injected cpm (%), 30′: 19.44%
  blood/injected cpm (%), 60′: 16.33%
  brain, cpm recovered: 210 cpm
  epididimal fat, cpm recovered: 909 cpm
  kidney, cpm recovered: 9,245 cpm
  liver, cpm recovered: 7,918 cpm
  lungs, cpm recovered: 1,052 cpm
  recovered cpm/injected cpm (%): 43.62%
  urine, cpm recovered: 34,112 cpm
[5]
  recovered cpm/mouse: 78,079 cpm and 67,291 cpm and 64,828 cpm and 79,362 cpm
  blood 5′, total cpm in the blood: 29,400 cpm and 29,120 cpm and 34,240 cpm and 32,920 cpm
  blood 10′, total cpm in the blood: 26,680 cpm and 32,320 cpm and 28,200 cpm and 27,760 cpm
  blood 20′, total cpm in the blood: 20,280 cpm and 30,960 cpm and 27,240 cpm and 21,800 cpm
  blood 60′, total cpm in the blood: 11,880 cpm and 22,840 cpm and 16,280 cpm and 14,440 cpm
  blood/injected cpm (%), 5′: 20.56% and 20.36% and 23.94% and 23.02%
  blood/injected cpm (%), 10′: 18.66% and 22.60% and 19.72% and 19.41%
  blood/injected cpm (%), 20′: 14.18% and 21.65% and 19.05% and 15.24%
  blood/injected cpm (%), 60′: 8.31% and 15.97% and 11.38% and 10.10%
  brain, cpm recovered: 76 cpm and 106 cpm and 94 cpm and 74 cpm
  epididimal fat, cpm recovered: 375 cpm and 591 cpm and 462 cpm and 465 cpm
  kidney, cpm recovered: 2,397 cpm and 4,407 cpm and 5,018 cpm and 5,772 cpm
  liver, cpm recovered: 3,516 cpm and 6,546 cpm and 6,561 cpm and 4,807 cpm
  lungs, cpm recovered: 393 cpm and 643 cpm and 582 cpm and 533 cpm
  recovered cpm/injected cpm (%): 54.60% and 47.06% and 45.33% and 55.50%
  urine, cpm recovered: 59,442 cpm and 32,158 cpm and 35,831 cpm and 53,271 cpm
[6]
  recovered cpm/mouse: 72,390 cpm
  blood 5′, total cpm in the blood: 31,420 cpm
  blood 10′, total cpm in the blood: 28,740 cpm
  blood 20′, total cpm in the blood: 25,070 cpm
  blood 60′, total cpm in the blood: 16,360 cpm
  blood/injected cpm (%), 5′: 21.97%
  blood/injected cpm (%), 10′: 20.10%
  blood/injected cpm (%), 20′: 17.53%
  blood/injected cpm (%), 60′: 11.44%
  brain, cpm recovered: 88 cpm
  epididimal fat, cpm recovered: 473 cpm
  kidney, cpm recovered: 4,399 cpm
  liver, cpm recovered: 5,358 cpm
  lungs, cpm recovered: 538 cpm
  recovered cpm/injected cpm (%): 50.62%
  urine, cpm recovered: 45,176 cpm
